Test results published in patent US20220169732A1 (BIOND BIOLOGICS, published 2022).
Where no end group is shown, it is not given here.

Target: T1, BSA conjugated CD28 stalk region dimeric peptide (also: dimer through the cysteine, BSA conjugated via C-terminal Lys by hydrazide chemistry)
T1 peptide: GKHLCPSPLFPGPSKPK
Test: ELISA

B1: antibody M9 (antibody, V domains shown)
VH: DVKLVESGGGLVKLGGSLKLSCVASGFTFSSYYMSWVRQTPEKRLEWVATISDGGDNTYYAGTVTGRFTISRDFAKNTLYLQMNSLTSEDTAVYYCARIHWPYYFDSWGQGTTLTVSS
VL: QFVLSQSPAILSASPGEMLTMTCRASSSVSYMNWYQQKPGSSPKPWIYATSDLASGVPARFSGSGSGTSYSLTISRVEAEDAATYYCQQWSSHPPTFGGGTKLEIR
notes: Full-size mouse antibody raised in CD1 mice against the dimeric stalk peptide; detected with anti mouse IgG; also called clone M9; anti-cleavage antibody M9
IC50: 9 ng/mL
